Columns and labels:
[1] = molecular target: T1, human CD47 (human, UniProt Q08722 19-141, limits assumed); assay: affinity maturation by phage display on hCD47; positive in hCD47-SIRPα inhibition screen, reformatted as IgG
T1 construct: also called hCD47

[2] = molecular target: T2, human CD47 on the cell surface (human, UniProt Q08722 19-323); assay: CD47-SIRPα competitive binding assay: His-tagged soluble human SIRPα (200 ng/ml) on hCD47-transfected CHO cells, antibody 3.3 pM-330 nM; blocked ligand SIRPα
T2 construct: whole, on cells; also called huCD47; native CD47

binding result [1]	binding result [2]	Binder
binds	binds	Ke8H6 antibody (antibody, human IgG1, kappa, V domains shown, IgG) VH: not shown VL: DIQMTQSPSSLSASVGDRVTITCRASQSISKYLNWYQQKPGKAPKLLIYNASTLQSGVPSRFSGSGSGTDFTLTISSLQPEDFATYYCQQRHPRGPRTFGQGTKVEIKR
binds	binds	Ke81A3 antibody (antibody, human IgG1, kappa, V domains shown, IgG) VH: not shown VL: DIQMTQSPSSLSASVGDRVTITCQASQDINRYLNWYQQKPGKAPKLLIYAASSLQSGVPSRFSGSGSGTDFTLTISSLQPEDFATYYCQQRHPRAPRTFGQGTKVEIKR
binds	binds	Ke86G9 antibody (antibody, human IgG1, kappa, V domains shown, IgG) VH: not shown VL: DIQMTQSPSSLSASVGDRVTITCRASQSISKYLNWYQQKPGKAPKLLIYNASNLQSGVPSRFSGSGSGTDFTLTISSLQPEDFATYYCQQRHPRGPTTFGQGTKVEIKR
binds	binds	Ke81G9 antibody (antibody, human IgG1, kappa, V domains shown, IgG) VH: not shown VL: DIQMTQSPSSLSASVGDRVTITCRASQSIDKYLNWYQQKPGKAPKLLIYAASRLQSGVPSRFSGSGSGTDFTLTISSLQPEDFATYYCQQRHKRSPQTFGQGTKVEIKR
binds	binds	Ke84G9 antibody (antibody, human IgG1, kappa, V domains shown, IgG) VH: not shown VL: DIQMTQSPSSLSASVGDRVTITCRASQSISKYLNWYQQKPGKAPKLLIYAASSLQSGVPSRFSGSGSGTDFTLTISSLQPEDFATYYCQQKHPRSPRTFGQGTKVEIKR

Further lines, the binder ahead of its results:

Binder	binding result [1]	binding result [2]
Kc4C3 antibody (antibody, human IgG1, lambda, V domains shown, IgG, lambda) VH: not shown VL: QSALTQPASVSGSPGQSITISCTGTSSDVRAANYVSWYQQHPGKAPKLMIYKNSTRPSGVSNRFSGSKSGNTASLTISGLQAEDEADYYCSSYDWWFRPKVFGGGTKLTVLG	binds	binds
Kc4C11 antibody (antibody, human IgG1, lambda, V domains shown, IgG, lambda) VH: not shown VL: QSALTQPASVSGSPGQSITISCTGTSSDVRGNNYVSWYQQHPGKAPKLMIYENSKRPSGVSNRFSGSKSGNTASLTISGLQAEDEADYYCSSYDWWFRPKVFGGGTKLTVLG	binds	binds
Kc4E2 antibody (antibody, human IgG1, lambda, V domains shown, IgG, lambda; also called KC4-P2E2) VH: not shown VL: QSALTQPASVSGSPGQSITISCTGTSSDVYYNKYVSWYQQHPGKAPKLMIYESSKRPSGVSNRFSGSKSGNTASLTISGLQAEDEADYYCSSYDWWFRPKVFGGGTKLTVLG	binds	binds
Kc4F4 antibody (antibody, human IgG1, lambda, V domains shown, IgG, lambda) VH: not shown VL: QSALTQPASVSGSPGQSITISCTGTSSDVRRANYVSWYQQHPGKAPKLMIYQDSSRPSGVSNRFSGSKSGNTASLTISGLQAEDEADYYCSSYDWWFRPKVFGGGTKLTVLG	binds	binds
Kc4A4 antibody (antibody, human IgG1, lambda, V domains shown, IgG, lambda) VH: not shown VL: QSALTQPASVSGSPGQSITISCTRTSSDVNNTNYVSWYQQHPGKAPKLMIYKTSGRPSGVSNRFSGSKSGNTASLTISGLQAEDEADYYCSSYDWWFRPKVFGGGTKLTVLG	binds	binds
Kc4A1 antibody (antibody, human IgG1, lambda, V domains shown, IgG, lambda) VH: not shown VL: QSALTQPASVSGSPGQSITISCTGTSSDVSARNYVSWYQQHPGKAPKLMIYESSKRPSGVSNRFSGSKSGNTASLTISGLQAEDEADYYCSSYDWWFRPKVFGGGTKLTVLG	binds	binds
Kc4E10 antibody (antibody, human IgG1, lambda, V domains shown, IgG, lambda) VH: not shown VL: QSALTQPASVSGSPGQSITISCTGTSSDVNSANYVSWYQQHPGKAPKLMIYKSSSRPSGVSNRFSGSKSGNTASLTISGLQAEDEADYYCSSYDWWFRPKVFGGGTKLTVLG	binds	binds

Source: patent publication US20240400720A1 (NOVIMMUNE S A, published 2024)
